Results published in article PMC5887321.
Like-named read-outs stand apart in the source and are kept apart here.

Legend:
Assay in all cases: SEC-SAXS
[1] = target: T1, DC-RIG-I (CARDs-truncated) (human, UniProt O95786 239-925)
T1 sequence: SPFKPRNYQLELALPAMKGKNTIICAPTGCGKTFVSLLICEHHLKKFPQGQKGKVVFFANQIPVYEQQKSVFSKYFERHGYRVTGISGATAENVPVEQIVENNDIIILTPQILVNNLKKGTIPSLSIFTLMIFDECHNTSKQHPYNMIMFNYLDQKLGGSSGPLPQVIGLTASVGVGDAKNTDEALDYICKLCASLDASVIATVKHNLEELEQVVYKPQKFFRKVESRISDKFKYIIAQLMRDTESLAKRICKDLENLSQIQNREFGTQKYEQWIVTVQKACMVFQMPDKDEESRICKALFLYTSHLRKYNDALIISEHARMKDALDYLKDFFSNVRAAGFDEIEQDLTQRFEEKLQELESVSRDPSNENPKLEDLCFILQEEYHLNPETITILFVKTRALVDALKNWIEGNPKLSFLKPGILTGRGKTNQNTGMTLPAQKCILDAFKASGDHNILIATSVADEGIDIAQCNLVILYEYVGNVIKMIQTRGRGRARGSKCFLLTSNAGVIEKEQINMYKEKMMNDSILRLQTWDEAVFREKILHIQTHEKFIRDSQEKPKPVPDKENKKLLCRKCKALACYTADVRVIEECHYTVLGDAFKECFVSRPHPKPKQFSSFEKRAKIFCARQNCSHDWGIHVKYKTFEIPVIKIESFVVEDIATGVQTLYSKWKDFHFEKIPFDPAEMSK

FL-RIG-I [2] = target: T2, FL-RIG-I (human, UniProt O95786 1-925)
T2 sequence: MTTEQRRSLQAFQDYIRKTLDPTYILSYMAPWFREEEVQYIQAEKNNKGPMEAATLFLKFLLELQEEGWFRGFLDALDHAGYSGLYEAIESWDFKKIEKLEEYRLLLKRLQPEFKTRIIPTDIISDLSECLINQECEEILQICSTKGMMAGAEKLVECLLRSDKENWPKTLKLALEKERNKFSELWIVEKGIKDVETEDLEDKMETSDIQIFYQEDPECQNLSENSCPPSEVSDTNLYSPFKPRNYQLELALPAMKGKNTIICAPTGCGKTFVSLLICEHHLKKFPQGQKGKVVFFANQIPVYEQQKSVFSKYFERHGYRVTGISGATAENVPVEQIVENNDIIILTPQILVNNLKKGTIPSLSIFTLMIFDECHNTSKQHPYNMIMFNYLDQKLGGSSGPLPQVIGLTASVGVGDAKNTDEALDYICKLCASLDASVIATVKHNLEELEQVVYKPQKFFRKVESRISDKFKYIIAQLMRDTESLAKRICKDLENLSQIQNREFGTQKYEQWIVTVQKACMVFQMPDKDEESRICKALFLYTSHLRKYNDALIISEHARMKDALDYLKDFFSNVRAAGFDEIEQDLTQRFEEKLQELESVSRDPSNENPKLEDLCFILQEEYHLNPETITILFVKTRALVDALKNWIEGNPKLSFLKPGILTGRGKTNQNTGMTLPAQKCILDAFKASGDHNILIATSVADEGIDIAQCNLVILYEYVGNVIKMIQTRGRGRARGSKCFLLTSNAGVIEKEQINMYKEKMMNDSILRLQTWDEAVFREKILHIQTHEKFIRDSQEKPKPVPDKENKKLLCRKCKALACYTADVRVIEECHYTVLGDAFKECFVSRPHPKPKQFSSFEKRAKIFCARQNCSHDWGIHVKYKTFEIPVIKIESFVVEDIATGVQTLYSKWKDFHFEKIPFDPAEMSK

[3] = target: T1, DC-RIG-I (CARDs-truncated); remark: listed apart in the source
FL-RIG-I [4] = target: T2, FL-RIG-I; remark: listed apart in the source
[5] = target: T1, DC-RIG-I (CARDs-truncated); remark: listed apart in the source
FL-RIG-I [6] = target: T2, FL-RIG-I; remark: listed apart in the source

GGACGUACGUUUCGACGUACGUCC (structured_RNA, 5'-triphosphate) [5'ppp 10 bp hairpin (10 bp)]: binds [1]; binds (FL-RIG-I [2]).

GGCGCGGCUUCGGCCGCGCC (structured_RNA, 5'-triphosphate) [5'ppp 8 bp hairpin (8 bp, SEC peak 1)]: binds [3]; binds (FL-RIG-I [4]).

B1: 8 bp-long (self-annealed 8 bp, SEC peak 2) (dsRNA)
RNA 1: GGCGCGGCUUCGGCCGCGCC
RNA 2: GGCGCGGCUUCGGCCGCGCC
modifications: 5'-triphosphate on each strand
B1: binds [5]; binds (FL-RIG-I [6]).
